Test results: patent US20110293610A1 (published 2011)
Residue numbers refer to the chain shown, from its start.

T1: TNF-beta (human, UniProt P01374 35-205)
T1 construct: also called TNFβ; Tumour Necrosis Factor-beta
T1 sequence (looked up): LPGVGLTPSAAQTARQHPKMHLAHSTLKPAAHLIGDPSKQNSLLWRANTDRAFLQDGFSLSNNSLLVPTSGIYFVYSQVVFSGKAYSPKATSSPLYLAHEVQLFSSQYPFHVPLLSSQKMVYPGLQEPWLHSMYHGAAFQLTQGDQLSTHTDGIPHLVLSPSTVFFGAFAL

B1: I073F04 (scFv)
scFv: QVQLQQSGAEVKKPGSSVKVSCKASGGTFRSYAFSWVRQAPGQGLEWMGYIVPVFGTATYAQNFQGRVTITADELTTTAFMELSSLTSEDTAVYYCARSLATRPLGMDVWGRGTTVTVSSGGGGSGGGGSGGGGSQSVLTQPASVSGSPGQSITISCTGTSSDVGGYNYVSWYQQHPGKAPKLMIYEGSKRPSGVSNRFSGSKSGNTASLTISGLQAEDEADYYCSSYTTRSTRVFGGGTKLTVLG
B2: I067B10 (scFv)
scFv: QMQLVQSGAEVKKPGASVKVSCKASGYTFTSYYMHWVRQAPGQGLEWMGWINAGNSNTKYSQKFQGRVTITSDTSASTAYMELSGLRSEDTAVYYCARDRGAPNYDILTGYYAPAQGVAFDIWGKGTLATVSSGGGGSGGGGSGGGGSQSVLTQPPSVSAAPGQKVTISCSGSTSNIGNNYVSWYQQHPGKAPKLMIYDVSKRPSGVPDRFSGSKSGNSASLDISGLQSEDEADYYCAAWDDSLSEFLFGTGTKLTVLG
B3: I065F08 (scFv)
scFv: QVQLQQSGAEVKKPGSSVKVSCKASGDTFSSFGISWVRQVPGQGLEWMGAIIPKFDIVTYAEEFKGRVTISADKLTNTAYMEVKSLRSEDTAVYYCTREKSAAGYFDYWGKGTLVTVSSGGGGSGGGGSGGGGSDIVMTQSPSTLSASVGDRVTITCRASQGISSWLAWYQQKPGRAPKVLIYKASTLESGVPSRFSGSGSGTDFTLTISSLQPEDFATYYCQQSYSTPWTFGQGTKLEIKR
B4: I075G01 (scFv)
scFv: QVQLVQSGAEVKKPGASVKVSCKTSGYTFTGYNINWVRQAPGQGLEWMGWVSPSNGDTSYAQTFQGRVTMTRDTSISTAYMELSSLKSDDTAVYYCARDHFDTLTGYFRRLDSWGQGTLVTVSSGGGGSGGGGSGGGGSALSSELTQDPEVSVALGQTVTITCQGDSLITHYASWFQQKPGQAPLLVFYSKDKRPSGIPDRFSGSYSGNTASLTITGAQAEDEADYYCNSRDSRGKNHVAFGGGTKLTVLG
B5: I065D08 (scFv)
scFv: GVQLVQSGAEVKKPGASVKVSCKASGYTFTSYGISWVRQAPGQGLEWMGWISAYNGNTNYAQKLQGRVTMTTDTSTSTAYMELRSLRSDDTAVYYCARTPSSVYDLLTGYYHYFYSYMDVWGRGTMVTVSSGGGGSGGGGSGGGGSQSVLTQPASVSGSPGQSITISCTGTSSDVGGYNYVSWYQQHPGEAPKLMIYEGSKRPSGVSNRFSGSKSGNTASLTISGLQAEDEADYYCSSYTTRSTRVFGGGTKLTVLG
B6: I068B04 (scFv)
scFv: QVQLVQSGAEVKKPGSSVKVSCKASGGTVSSRTISWVRQAPGQGLEWMGGSLPPSGAPIYAQKFQGRVAITADALTNTAFMELRSLKSDDTAVYYCARDQGRYLDLWGRGTLVTVSSGGGGSGGGGSGGGGSALPVLTQPPSASATPGQRVTISCSGSSSNIGSNYVYWYQQLPGTAPKVLIYRNNQRPSGVPDRFSGSRSGTSASLAISGLRSEDEADYYCATWDDSLSGPVFGGGTKVTVLG
B7: I002A01-R (scFv)
scFv: QVQLVQSGAEVKKPGSSVKVSCRASGGSFNRHAISWVRQAPGRGLEWMGGILPMYGTANYAQKFQGRVTITADKLTNTVYMDLSRLRYEDTAVYYCARELGLSIVGATTGALDMWGKGTLVTVSSGGGGSGGGGSGGGGSALPVLTQPPSVSVAPGQTATLTCGGTNFGRQSVHWYQQKPGQAPVLAIYHDDVRPSGIPERLSGSKSGNTATLTISRVEAGDEAAYYCQVWDSGSDVVVFGGGTKLTVLG
B8: I002A01-K (scFv)
scFv: B7 scFv with R31K
B9: I003C06 (scFv)
scFv: QVQLVQSGAEVKKPGSSVKVSCRASGGSFNHAISWVRQAPGRGLEWMGGILPMYGTANYAQKFQGRVTITADKLTNTVYMDLSRLRYEDTAVYYCARELGLSIVGATTGALDMWGKGTLVTVSSGGGGSGGGGSGGGGSALPVLTQPPSVSVAPGQTATLTCGGTNFGRQSVHWYQQKPGQAPVLAIYHDDVRPSGIPERLSGSKSGNTATLTISRVEAGDEAAYYCQVWDSGSDVVVFGGGTKLTVLG
B10: I072B09 (scFv)
scFv: QVQLQQSGAEVKKPGASVKVSCRASGYTFTKYTMHWVRQAPGQGPEWMGWINGGSGDTKYSRKFQGRVTITKDTSASAAYMELSSLGSEDTALYYCARATYDPLTGYSFDGFDIWGQGTLVTVSSGGGGSGGGGSGGGGSSELTQDPAVSVALGQTVRITCQGDSLRSYYTNWFQQKPGQAPLLVVYAKNKRPSGIPDRFSGSSSGNTASLTITGAQAEDEADYYCNSRDSSGNHVVFGGGTKLTVLD
B11: I064C07 (scFv)
scFv: QVQLVQSGAEVKKPGSSVKVSCKASGGTFSSYAISWVRQAPGQGLEWMGGIIPIFGTANYAQKFQGRVTITADDLTRTAYMEMSSLKFEDTAVYYCASSEGTIFGVDWGRGTLVTVSSGGGGSGGGGSGGGGSDIQMTQSPSFLSASVGDRVTITCRASQGINNYLAWYQQKPGRAPKLLMYAASSLQSGVPSRFSGSGSGTDFTLTISSLQPEDFATYYCLQDSDYPLTFGGGTKLEIKR
B12: I064C04 (scFv)
scFv: QVQLVQSGAEVKKPGASVKVSCEASGYTFTSYGISWVRQAPGQGLEWMGWISTYNGNTRYPQKLQGRVTMTTDTSTSTAYMDLRSLRSDDTAVYYCARDGRLSYDILTGYYARDYYGMDDWGRGTMVTVSSGGGGSGGGGSGGGGSQSVLTQPASVSGSPGQSITISCTGTSSDVGGYNYVSWYQQHPGKAPKLMIYEGSKRPSGVSNRFSGSKSGNTASLTISGLQAEDEADYYCSSYTTRSTRVFGGGTKLTVLG
B13: I026C04-R (scFv)
scFv: QVQLVQSGAEVKKPGSSVKVSCRASGGSFNRHAISWVRQAPGRGLEWMGGILPMYGTANYAQKFQGRVTITADKLTNTVYMDLSRLRYEDTAVYYCARELGLSIVGATTGALDMWGKGTLVTVSSGGGGSGGGGSGGGGSAQSVLTQPPSVSAAPGQKVTISCSGSSSNIGNNYVSWYQQIPGTAPKLLIYENNKRPSGIPDRFSGSKSGASATLDITGLQTGDEADYYCGTWHSSQVVFGGGTKLTVLG
B14: I030A10 (scFv)
scFv: QVQLVQSGAEVKKPGSSVKVSCRASGGSFNHAISWVRQAPGRGLEWMGGILPMYGTANYAQKFQGRVTITADKLTNTVYMDLSRLRYEDTAVYYCARELGLSIVGATTGALDMWGRGTLVTVSSGGGGSGGGGSGGGGSAQAVLTQPSSVSGAPGQRVIISCTGSSSNIGPDYDVHWYQQLPGTAPKLLIYGNNNRPSGVPDRFSGSKSGTSASLAITGLQAEDEAHYYCQSYGSSLSGVVFGGGTKVTVLG
B15: I078D08 (scFv)
scFv: QVNLRESGGGLVQPGGSLRLSCAASGFTFSSYWMSWVRQAPGKGLEWVANIKQDGSEKYYVDSVKGRFTISRDNSKNTLYLQMNSLRAEDTAVYYCARDAQSYYDILTGYQSYAFDIWGQGTTVTVSSGGGGSGGGGSGGGGSSELTQDPAVSVALGQTVRITCQGDSLRSYYTNWFQQKPGQAPLLVVYAKNKRPSGIPDRFSGSSSGNTASLTITGAQAEDEADYYCHSRDSSGNHVLFGGGTKLTVLG

molecular target: T2, B Lymphocyte Stimulator, soluble form (human) (human, UniProt Q9Y275 134-285, biotinylated with NHS-biotin where used as biotinylated B Lymphocyte Stimulator); test: phage ELISA
T2 construct: Coated on plastic, captured on streptavidin plates, amine-coupled to a CM5 chip or free in solution, depending on the assay; also called BLyS; immobilized B Lymphocyte Stimulator

| Binder | binding result |
| --- | --- |
| B1 | binds |
| B2 | binds |
| B3 | binds |
| B4 | binds |
| B5 | binds |
| B6 | binds |
| B7 | binds |
| B8 | binds |
| B9 | binds |
| B10 | binds |
| B11 | binds |
| B12 | binds |
| B13 | binds |
| B14 | binds |
| B15 | binds |

molecular target: T3, TRAIL (human, UniProt P50591 114-281); test: phage ELISA
T3 construct: also called TNF-related apoptosis inducing ligand
T3 sequence (P50591 114-281 limits assumed): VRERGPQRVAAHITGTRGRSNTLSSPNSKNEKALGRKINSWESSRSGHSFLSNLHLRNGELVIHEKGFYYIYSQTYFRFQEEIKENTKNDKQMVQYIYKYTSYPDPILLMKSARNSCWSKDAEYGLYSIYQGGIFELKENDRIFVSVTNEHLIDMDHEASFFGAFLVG

| Binder | binding result |
| --- | --- |
| B1 | no binding |
| B2 | no binding |
| B3 | no binding |
| B4 | no binding |
| B5 | no binding |
| B6 | no binding |
| B7 | no binding |
| B8 | no binding |
| B9 | no binding |
| B10 | no binding |
| B11 | no binding |
| B12 | no binding |
| B13 | no binding |
| B14 | no binding |
| B15 | no binding |

molecular target: T1, TNF-beta; test: phage ELISA

| Binder | binding result |
| --- | --- |
| B1 | no binding |
| B2 | no binding |
| B3 | no binding |
| B4 | no binding |
| B5 | no binding |
| B6 | no binding |
| B7 | no binding |
| B8 | no binding |
| B9 | no binding |
| B10 | no binding |
| B11 | no binding |
| B12 | no binding |
| B13 | no binding |
| B14 | no binding |
| B15 | no binding |

molecular target: T4, TNF-alpha (human, UniProt P01375 77-233); test: phage ELISA
T4 construct: also called TNFα; TNF-α
T4 sequence (P01375 77-233 limits assumed): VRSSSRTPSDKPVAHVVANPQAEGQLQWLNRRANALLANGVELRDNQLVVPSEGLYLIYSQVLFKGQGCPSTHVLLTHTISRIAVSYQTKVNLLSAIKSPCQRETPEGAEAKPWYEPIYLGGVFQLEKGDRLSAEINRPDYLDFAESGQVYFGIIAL

| Binder | binding result |
| --- | --- |
| B1 | no binding |
| B2 | no binding |
| B3 | no binding |
| B4 | no binding |
| B5 | no binding |
| B6 | no binding |
| B7 | no binding |
| B8 | no binding |
| B9 | no binding |
| B10 | no binding |
| B11 | no binding |
| B12 | no binding |
| B13 | no binding |
| B14 | no binding |
| B15 | no binding |

molecular target: LIGHT (human, UniProt O43557 74-240, limits assumed); test: phage ELISA
Sequence (O43557 74-240 limits assumed): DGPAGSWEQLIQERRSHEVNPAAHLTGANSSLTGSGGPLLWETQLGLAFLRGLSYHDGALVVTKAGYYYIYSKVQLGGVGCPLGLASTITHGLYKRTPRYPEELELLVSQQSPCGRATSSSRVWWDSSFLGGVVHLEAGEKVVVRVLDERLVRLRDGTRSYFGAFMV

| Binder | binding result |
| --- | --- |
| B1 | no binding |
| B2 | no binding |
| B3 | no binding |
| B4 | no binding |
| B5 | no binding |
| B6 | no binding |
| B7 | no binding |
| B8 | no binding |
| B9 | no binding |
| B10 | no binding |
| B11 | no binding |
| B12 | no binding |
| B13 | no binding |
| B14 | no binding |
| B15 | no binding |
